Test results reported in patent US20140056907A1 (Regeneron, published 2014).

T1: human ASIC1 (human, UniProt P78348 1-528)
T1 construct: Ion channel subunit expressed on 3T3 (3T3/hASIC1) or HEK293 cells (HEK/hASIC1; HEK293 CL:1F10 transient); also called hASIC1; human ASIC1a
T1 sequence: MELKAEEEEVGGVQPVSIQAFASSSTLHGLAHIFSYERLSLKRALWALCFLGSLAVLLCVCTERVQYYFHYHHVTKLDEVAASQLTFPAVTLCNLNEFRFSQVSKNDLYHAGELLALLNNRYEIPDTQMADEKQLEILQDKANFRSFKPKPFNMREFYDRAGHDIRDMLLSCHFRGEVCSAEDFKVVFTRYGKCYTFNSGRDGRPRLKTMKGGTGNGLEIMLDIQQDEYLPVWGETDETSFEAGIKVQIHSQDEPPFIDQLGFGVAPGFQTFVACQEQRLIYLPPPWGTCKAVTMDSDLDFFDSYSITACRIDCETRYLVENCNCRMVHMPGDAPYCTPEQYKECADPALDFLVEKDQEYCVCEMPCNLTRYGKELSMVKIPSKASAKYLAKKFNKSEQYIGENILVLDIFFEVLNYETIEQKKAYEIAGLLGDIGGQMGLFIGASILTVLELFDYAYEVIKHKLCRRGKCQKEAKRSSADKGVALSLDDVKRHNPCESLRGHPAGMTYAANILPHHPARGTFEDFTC

T2: mouse ASIC1a (mouse, UniProt Q6NXK8 1-526)
T2 construct: whole, on cells; Expressed on stably transfected 3T3 cells (3T3/mASIC1a); also called mASIC1a
T2 sequence (looked up): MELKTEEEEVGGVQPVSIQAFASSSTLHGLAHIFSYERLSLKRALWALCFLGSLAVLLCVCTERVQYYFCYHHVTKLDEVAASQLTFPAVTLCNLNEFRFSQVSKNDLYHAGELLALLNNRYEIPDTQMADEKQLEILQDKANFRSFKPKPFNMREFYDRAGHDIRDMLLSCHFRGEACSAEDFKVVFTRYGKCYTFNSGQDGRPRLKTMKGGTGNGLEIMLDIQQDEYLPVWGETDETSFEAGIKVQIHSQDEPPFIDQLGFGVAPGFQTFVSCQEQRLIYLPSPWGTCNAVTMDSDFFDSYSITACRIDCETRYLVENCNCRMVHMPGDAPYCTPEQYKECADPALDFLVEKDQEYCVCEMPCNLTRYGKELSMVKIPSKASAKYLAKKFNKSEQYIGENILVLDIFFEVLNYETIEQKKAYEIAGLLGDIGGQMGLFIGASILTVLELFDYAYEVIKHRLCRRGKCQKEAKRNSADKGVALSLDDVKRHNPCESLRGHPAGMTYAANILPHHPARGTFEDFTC


How the values were obtained:
human ASIC1 [1] = biological target: T1, human ASIC1; experiment: FACS titration, 3T3/hASIC1 cells
Protocol: To perform the FACS binding experiments, adherent cells were collected using 1 mM EDTA in PBS, then washed, and re-suspended in cold PBS containing 5% FBS. For each binding experiment, each anti-ASIC1 antibody ([…] or ND7 cells) was added to 250,000 cells in 500 μL of PBS with 5% FBS. After incubation for 20 minutes at room temperature, a secondary antibody which recognizes human Fc (Cat. No. 109-136-098, Jackson ImmunoResearch Laboratories, Inc., West Grove, Pa.) or mouse Fc (Cat. No. 550826, BD Biosciences, San Jose, Calif.) and is conjugated to allophycocyanin, was then added to the cell mixture at a final concentration of 13.3 nM. After incubating for 20 minutes on ice, the cells were washed and resuspended in PBS containing 5% FBS, then sorted and analyzed on a flow cytometer (FACSCalibur, BD Biosciences, San Jose, Calif.) to determine relative binding by the candidate antibodies to the tested cell lines. Histograms of cells stained with anti-ASIC1 antibodies were compared with those of cells stained with secondary antibody alone. Percentage of ASIC1 signal over secondary antibody alone was calculated using FlowJo software (Tree Star, Ashland, Oreg.).

mouse ASIC1a = biological target: T2, mouse ASIC1a; experiment: FACS, 3T3/mASIC1a cells
Excerpt: To further characterize anti-ASIC1 antibodies, their ability to bind either (a) a mouse fibroblast 3T3 cell line stably transfected to overexpress full length human ASIC1 (3T3/hASIC1; amino acids 1-528 of NCBI accession number NP_{—}001086.2 [SEQ ID NO:401]), (b) a 3T3 cell line stably transfected to over express full length mouse ASIC1a (3T3/mASIC1a; amino acids 1-526 of NCBI accession number NP_{—}033727), or (c) a ND7 cell line (ECACC, #92090903) that is a fusion cell line of mouse neuroblastoma and rat dorsal root ganglia that endogenously expresses rat ASIC1, was determined using flow cytometry (FACS). ND7 cells were differentiated by replacing the culture media with low-serum media (0.5% FBS) containing 1 mM dibutyryl-cAMP (Cat. No. sc-201567A, Santa Cruz Biotechnology, Inc., Santa Cruz, Calif.). FACS binding was tested for some antibodies on both undifferentiated ND7 cells and differentiated ND7 cells.
To perform the FACS binding experiments, adherent cells were collected using 1 mM EDTA in PBS, then washed, and re-suspended in cold PBS containing 5% FBS. For each binding experiment, each anti-ASIC1 antibody (at final concentrations of 10 nM of purified antibodies or 3.3 nM for antibody supernatants for binding to 3T3/hASIC1 cells and 5 nM for binding to 3T3/mASIC1a or ND7 cells) was added to 250,000 cells in 500 μL of PBS with 5% FBS. After incubation for 20 minutes at room temperature, a secondary antibody which recognizes human Fc (Cat. No. 109-136-098, Jackson ImmunoResearch Laboratories, Inc., West Grove, Pa.) or mouse Fc (Cat. No. 550826, BD Biosciences, San Jose, Calif.) and is conjugated to allophycocyanin, was then added to the cell mixture at a final concentration of 13.3 nM. After incubating for 20 minutes on ice, the cells were washed and resuspended in PBS containing 5% FBS, then sorted and analyzed on a flow cytometer (FACSCalibur, BD Biosciences, San Jose, Calif.) to determine relative binding by the candidate antibodies to the tested cell lines. Histograms of cells stained with anti-ASIC1 antibodies were compared with those of cells stained with secondary antibody alone. Percentage of ASIC1 signal over secondary antibody alone was calculated using FlowJo software (Tree Star, Ashland, Oreg.).

human ASIC1 [2] = biological target: T1, human ASIC1; experiment: cell-based or functional assay
human ASIC1 [3] = biological target: T1, human ASIC1; experiment: cell-based or functional assay; remark: listed apart in the source
human ASIC1 [4] = biological target: T1, human ASIC1; experiment: cell-based or functional assay; remark: listed apart in the source

EC50 (human ASIC1 [1]) | binding result (mouse ASIC1a) | Current inhibition (%) at 100 nM antibody, Q-Patch, pH 6.0 (human ASIC1 [2]) | apparent IC50, human ASIC1 current, Q-Patch (human ASIC1 [3]) | FLIPR Dose Curve, pH 5.0 % Block (human ASIC1 [4]) | FLIPR Dose Curve, pH 5.5 % Block (human ASIC1 [4]) | FLIPR Dose Curve, pH 5.5 IC50 (human ASIC1 [4]) | calculated IC50, inhibition of human ASIC1 current, Port-a-Patch (human ASIC1 [3]) | Binder
1 nM | binds | 72% | ≤ 10 nM |  |  |  |  | H4H6366P (antibody, human IgG4, V domains shown) VH: EVQLVESGGDLIQPGGSLRLSCIASGFTFRGYAMSWVRQAPGEGLDWVSGISSGGGNTYYADSVKGRFTISRDNSKNTLYLQMNSLRVEDTAVYYCAKDRGGVRDFYYGLDVWGQGTTVTVSS VL: DIQMTQSPSTLSASVGDRVTITCRASQSIYSWLAWYQQKPGKAPKLLIYKASSLESGVPSRFSGSGSGTDFTLTISSLQPDDFTTYYCQQYLSYSRTFGQGTKVEIK
0.55 nM | binds | 100% | < 1 nM | 48% | 78% | 0.6 nM | 0.86 nM | H1M6718N (antibody, mouse IgG1, V domains shown) VH: EVQLLESGGGLVQPGGSLRLSCAASGFTFSSFAMSWVRQAPGKGLEWVSGISGSGGGTHYADSVKGRFTISRDNSKNMVYLQMNSLRAEDTAAYYCAKEAYKWQPWGQGTLVTVSS VL: DIQMTQSPSTLSASVGDRVIITCRASQRISSWLAWYQQKPGKAPNLLIYKASILESGVPSRFSGSGSGTEFTLTISSLQPDDFATYYCQQYNSYSYTFGQGTKLEIK
0.72 nM | binds | 97% | < 1 nM |  |  |  |  | H1M7101N (antibody, mouse IgG1, V domains shown) VH: EVQLLASGGGLVQTGGSLRLSCAASGFTFSSFAMSWVRQAPGKGLEWVSGISGSGGSTYYADSVKGRFTISRDNSKNTLYLQMNSLRAEDTAAYYCAKEAYKWQPWGQGIRVTVSS VL: DIQMTQSPSTLSASVGDRVTITCRASQSISSWLAWYQQKPGKAPNLLIYKTSNLESGVPSRFSGSGSGTEFTLTISSLQPDDFATYYCQQYNSYSYTFGQGTKLEIK
